In this experiment the target is T1, Myc-ArPIKfyve^WT (human), Q08AM6.
T1 chain: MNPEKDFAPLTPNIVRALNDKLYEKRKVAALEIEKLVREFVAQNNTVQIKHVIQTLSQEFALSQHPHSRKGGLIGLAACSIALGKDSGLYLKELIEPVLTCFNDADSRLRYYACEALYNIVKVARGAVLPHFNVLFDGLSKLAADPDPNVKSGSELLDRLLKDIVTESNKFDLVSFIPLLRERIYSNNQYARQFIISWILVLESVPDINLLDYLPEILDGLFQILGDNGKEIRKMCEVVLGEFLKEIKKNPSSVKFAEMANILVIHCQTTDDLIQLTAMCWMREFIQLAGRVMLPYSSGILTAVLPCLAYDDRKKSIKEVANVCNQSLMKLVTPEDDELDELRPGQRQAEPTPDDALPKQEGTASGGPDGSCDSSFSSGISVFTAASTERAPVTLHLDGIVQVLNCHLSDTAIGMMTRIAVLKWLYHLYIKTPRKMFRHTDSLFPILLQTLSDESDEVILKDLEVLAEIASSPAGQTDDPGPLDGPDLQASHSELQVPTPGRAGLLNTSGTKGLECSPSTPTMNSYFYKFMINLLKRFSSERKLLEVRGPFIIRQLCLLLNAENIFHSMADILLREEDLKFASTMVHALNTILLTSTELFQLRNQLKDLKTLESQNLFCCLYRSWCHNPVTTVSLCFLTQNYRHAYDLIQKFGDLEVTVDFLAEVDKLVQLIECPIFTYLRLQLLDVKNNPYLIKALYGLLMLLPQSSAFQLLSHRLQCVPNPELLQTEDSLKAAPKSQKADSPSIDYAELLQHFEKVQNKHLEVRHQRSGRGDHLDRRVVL
Briefly: cross-linking. The conditions noted are these: remark: other sources report otherwise.

“And” between values parts separate entries of the source, which are not always exact repeats. Equal entries are not always repeated.

Usually stoichiometry N stands for a count of units in the complex or per binding partner.

B1: Myc-ArPIKfyve^WT, Q08AM6 1-782 (natural protein)
chain: MNPEKDFAPLTPNIVRALNDKLYEKRKVAALEIEKLVREFVAQNNTVQIKHVIQTLSQEFALSQHPHSRKGGLIGLAACSIALGKDSGLYLKELIEPVLTCFNDADSRLRYYACEALYNIVKVARGAVLPHFNVLFDGLSKLAADPDPNVKSGSELLDRLLKDIVTESNKFDLVSFIPLLRERIYSNNQYARQFIISWILVLESVPDINLLDYLPEILDGLFQILGDNGKEIRKMCEVVLGEFLKEIKKNPSSVKFAEMANILVIHCQTTDDLIQLTAMCWMREFIQLAGRVMLPYSSGILTAVLPCLAYDDRKKSIKEVANVCNQSLMKLVTPEDDELDELRPGQRQAEPTPDDALPKQEGTASGGPDGSCDSSFSSGISVFTAASTERAPVTLHLDGIVQVLNCHLSDTAIGMMTRIAVLKWLYHLYIKTPRKMFRHTDSLFPILLQTLSDESDEVILKDLEVLAEIASSPAGQTDDPGPLDGPDLQASHSELQVPTPGRAGLLNTSGTKGLECSPSTPTMNSYFYKFMINLLKRFSSERKLLEVRGPFIIRQLCLLLNAENIFHSMADILLREEDLKFASTMVHALNTILLTSTELFQLRNQLKDLKTLESQNLFCCLYRSWCHNPVTTVSLCFLTQNYRHAYDLIQKFGDLEVTVDFLAEVDKLVQLIECPIFTYLRLQLLDVKNNPYLIKALYGLLMLLPQSSAFQLLSHRLQCVPNPELLQTEDSLKAAPKSQKADSPSIDYAELLQHFEKVQNKHLEVRHQRSGRGDHLDRRVVL
On to B1, for which the stoichiometry N is 2 and 3.

These data come from publication PMC2756758.
